According to patent US20140120109A1 (Regeneron, published 2014):
Residue numbers refer to the chain shown, from its start. Names and notes keep the numbering of the source. One block for each binder: values may come before it.

Experiments:
[1] = molecular target: T1, human TL1A, soluble, CHO-expressed, residues 72-251 of SEQ ID NO:244 with N-terminal His6-tag (human, UniProt O95150 72-251); assay: SPR 37C, mAb captured
T1 construct: also called hTL1A; hTL1A (CHO)
T1 sequence: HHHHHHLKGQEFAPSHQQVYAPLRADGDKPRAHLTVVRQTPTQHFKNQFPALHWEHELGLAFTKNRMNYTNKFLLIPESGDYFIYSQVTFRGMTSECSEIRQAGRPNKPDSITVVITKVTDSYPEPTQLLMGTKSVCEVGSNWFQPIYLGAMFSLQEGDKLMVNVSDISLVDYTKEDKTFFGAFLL
In short: (§1)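 Biacore T100 SPR with captured mAb and soluble TL1A/Fhm analyte; ka and kd fitted to a 1:1 model assuming monomeric TL1A. KD = kd/ka; t1/2 (min) = ln2/(60·kd).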

[2] = molecular target: T2, cynomolgus monkey TL1A, soluble, CHO-expressed, residues 72-251 of SEQ ID NO:248 with N-terminal His6-tag (cynomolgus monkey (Macaca fascicularis), UniProt O95150 72-251 (human entry)); assay: SPR 37C, mAb captured
T2 construct: also called MfTL1A; MfTL1A (CHO)
T2 chain: T1 sequence with F45L, I84V
In short: as §1

[3] = molecular target: T3, mouse TL1A, soluble, CHO-expressed, residues 76-252 of SEQ ID NO:250 with N-terminal His6-tag (mouse, UniProt Q5UBV8 76-252); assay: SPR 37C, mAb captured
T3 construct: also called mTL1A; mTL1A (CHO)
T3 sequence: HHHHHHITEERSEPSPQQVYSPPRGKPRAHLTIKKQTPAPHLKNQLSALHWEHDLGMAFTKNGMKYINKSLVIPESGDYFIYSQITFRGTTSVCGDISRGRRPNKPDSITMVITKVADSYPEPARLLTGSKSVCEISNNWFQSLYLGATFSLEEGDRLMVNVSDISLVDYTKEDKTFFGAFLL
In short: as §1

[4] = molecular target: T4, rat TL1A, soluble, CHO-expressed, residues 76-252 of SEQ ID NO:258 with N-terminal His6-tag (rat, UniProt Q8K3Y7 76-252); assay: SPR 37C, mAb captured
T4 construct: also called rTL1A; rTL1A (CHO)
T4 sequence: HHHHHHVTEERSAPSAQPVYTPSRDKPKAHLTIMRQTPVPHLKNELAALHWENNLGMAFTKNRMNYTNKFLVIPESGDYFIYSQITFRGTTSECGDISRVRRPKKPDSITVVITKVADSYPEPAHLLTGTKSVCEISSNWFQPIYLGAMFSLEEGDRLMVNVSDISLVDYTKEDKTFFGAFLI
In short: as §1

[5] = molecular target: T5, Fhm, hTL1A(Q167R), soluble, CHO-expressed, residues 72-251 of SEQ ID NO:246 (human, UniProt O95150 72-251); assay: cell-based or functional assay
T5 chain: T1 sequence with Q102R

[6] = molecular target: T4, rat TL1A, soluble, CHO-expressed, …; assay: cell-based or functional assay
[7] = molecular target: T6, Fhm, hTL1A(Q167R), soluble, E. coli-expressed, residues 72-251 of SEQ ID NO:246 (human, UniProt O95150 72-251); assay: SPR 37C, mAb captured
T6 construct: with or without N-terminal Met
T6 chain: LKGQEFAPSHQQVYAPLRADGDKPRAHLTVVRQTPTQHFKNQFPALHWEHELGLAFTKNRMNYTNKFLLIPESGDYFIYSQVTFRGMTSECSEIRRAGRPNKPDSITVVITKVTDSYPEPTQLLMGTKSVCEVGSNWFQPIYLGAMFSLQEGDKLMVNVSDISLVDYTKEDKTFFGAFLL
In short: as §1

[8] = molecular target: T7, cynomolgus monkey TL1A, soluble, E. coli-expressed, residues 72-251 of SEQ ID NO:248 (cynomolgus monkey (Macaca fascicularis), UniProt O95150 72-251 (human entry)); assay: SPR 37C, mAb captured
T7 construct: with or without N-terminal Met; also called MfTL1A (E. Coli)
T7 chain: T6 chain with F39L, I78V, R96Q
In short: as §1

[9] = molecular target: T8, mouse TL1A, soluble, E. coli-expressed, residues 76-252 of SEQ ID NO:250 (mouse, UniProt Q5UBV8 76-252); assay: SPR 25C, steady state
T8 construct: with or without N-terminal Met; also called mTL1A (E. Coli)
T8 sequence: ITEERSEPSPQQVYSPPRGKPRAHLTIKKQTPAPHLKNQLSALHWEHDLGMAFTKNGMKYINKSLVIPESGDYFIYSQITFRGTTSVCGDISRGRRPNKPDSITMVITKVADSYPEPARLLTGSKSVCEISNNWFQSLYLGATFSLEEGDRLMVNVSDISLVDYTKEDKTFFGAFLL
In short: as §1

- Kd [1]: 45.8 pM
- t1/2 [1]: 4.77 h
- Kd [2]: 78 pM
- t1/2 [2]: 2.78 h
- binding result [3]: no binding (tested: up to 100 nM)
- Kd [4]: 127 pM
- t1/2 [4]: 1.47 h
- IC50, NFkB-luciferase reporter [5]: 100 pM
- IC50, NFkB-luciferase reporter [6]: 3640 pM
B1: H4H1804N (antibody, human IgG4 S228P, V domains shown)
VH: QVQLHQWGAGLLKPSETLSLTCAVSGVSFSDYHWAWIRQSPGKGLEWIGDINHRGRTNYNPSLKSRVTISLDTSGNPFSLKLTSVTAADTAVYYCARDFPNWVFDSWGQGILVTVSS
VL: EIVLSQSPGTLSLSPGERATLSCRASQSVSSSFLAWYQQYPGQAPRLLIYGASRRATGIPDRFRGSGSGTDFTLTISRLEPEDFAVYYCQQYGSSPLTFGGGTKVENK
notes: human IgG4(S108P) form of H2M1804N

- Kd [7]: 696 pM
- t1/2 [7]: 0.75 h
- Kd [8]: 945 pM
- t1/2 [8]: 0.583 h
- binding result [3]: no binding (tested: up to 100 nM)
- Kd [4]: 653 pM
- t1/2 [4]: 0.45 h
- binding result [9]: no binding (tested: up to 100 nM)
- IC50, NFkB-luciferase reporter [5]: 530 pM
- IC50, NFkB-luciferase reporter [6]: 6120 pM
B2: H4H1742P (antibody, human IgG4 S228P, V domains shown)
VH: EVQLVESGGGLVQPGGSLRLSCAASGFTFSNYVMNWVRQAPGKGLEWVSVISGSGGSTHYADSVKGRFTISRDNSKDALYLQMNSLRAEDTAVYYCAKGPLEAYYYYNGMDVWGQGTTVTVSS
VL: DIQLTQSPSFLSASVGDRVTITCWASQAISSYLAWYQHKPGRAPKLLIYSTSTLQSGVPSRFSGSGSGTEFTLTISSLQPEDFATYYCQQLNSYPTFGQGTKLEIK

- Kd [1]: 23.9 pM
- t1/2 [1]: 12.6 h
- Kd [7]: 43.6 pM
- t1/2 [7]: 3.23 h
- Kd [2]: 17.7 pM
- t1/2 [2]: 14.8 h
- Kd [8]: 62.2 pM
- t1/2 [8]: 2.9 h
- Kd [4]: 411 pM
- t1/2 [4]: 0.25 h
- Kd [9]: 62000 pM
- IC50, NFkB-luciferase reporter [5]: 70 pM
- IC50, NFkB-luciferase reporter [6]: 63400 pM
B3: H4H1725P (antibody, human IgG4 S228P, V domains shown)
VH: QVQLVQSGAEVKKPGASVKVSCKASGYTFTGYYMHWVRQAPGQGLEWMGWIKPKSGGTNYVQKFQGRVTMTRDTSINTAYMELNNLKSDDTAVYYCATGGSQDASDFWGQGTMVTVSS
VL: DIQMTQSPSSVSASVGGRVTITCRASQDISIWLAWYQQKPGKAPNLLIYAASSLQSGVPSRFSGSGSGTDFTLTISSLQPEDFATYYCQQADSFPLTFGGGTKVEIK

- Kd [3]: 1300 pM
- t1/2 [3]: 0.45 h
- Kd [4]: 46 pM
- t1/2 [4]: 2.22 h
- IC50, NFkB-luciferase reporter [5]: 170 pM
- IC50, NFkB-luciferase reporter [6]: 400 pM
B4: H4H1704N (antibody, human IgG4 S228P, V domains shown)
VH: EVQLVESGGGLVQPGGSLRLSCAVSGFTFSSYWMSWVRQAPGKGLEWVANIKEDGSEKNYVDSVKGRFTLSSDNAKNSLYLQMNSLRAEDTAVYYCAREDYDSYYKYGMDVWGQGTAVIVSS
VL: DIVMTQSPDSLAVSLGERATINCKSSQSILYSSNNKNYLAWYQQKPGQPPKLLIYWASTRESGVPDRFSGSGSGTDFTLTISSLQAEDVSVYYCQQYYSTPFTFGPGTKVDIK
notes: human IgG4(S108P) form of H2M1704N
